Results taken from PMC8910471, “The Finely Coordinated Action of SSB and NurA/HerA Complex Strictly Regulates the DNA End Resection Process in Saccharolobus solfataricus”.

What was measured:
HerA [1] = biological target: T1, HerA (Saccharolobus solfataricus, UniProt Q97WG8 1-500); experiment: EMSA; HerA alone, increasing amounts; EMSA: 5 pmol fluorescent DNA in 10 ul, 20 mM HEPES/NaOH pH 7.5, 35 mM beta-mercaptoethanol, 500 mM NaCl, 50 mM MgCl2 (so in the source), 10 min room temperature, 5% PAGE in 0.5x TBE; details: protein: recombinant; chain copies: 6; single strand
T1 sequence: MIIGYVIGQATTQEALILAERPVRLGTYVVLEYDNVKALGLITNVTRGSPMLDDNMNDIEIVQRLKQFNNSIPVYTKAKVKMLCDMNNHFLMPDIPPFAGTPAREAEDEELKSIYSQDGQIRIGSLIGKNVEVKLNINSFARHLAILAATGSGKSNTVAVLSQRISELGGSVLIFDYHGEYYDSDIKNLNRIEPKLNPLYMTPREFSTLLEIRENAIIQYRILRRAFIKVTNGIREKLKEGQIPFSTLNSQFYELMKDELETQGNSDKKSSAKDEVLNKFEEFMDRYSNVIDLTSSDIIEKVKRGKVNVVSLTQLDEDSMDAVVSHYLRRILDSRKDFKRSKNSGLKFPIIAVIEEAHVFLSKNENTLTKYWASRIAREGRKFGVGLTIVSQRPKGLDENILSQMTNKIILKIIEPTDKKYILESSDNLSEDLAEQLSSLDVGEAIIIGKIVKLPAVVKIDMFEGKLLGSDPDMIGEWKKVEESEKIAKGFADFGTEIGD

SSB [2] = biological target: T2, SSB (Saccharolobus solfataricus, UniProt Q97W73 1-148); experiment: EMSA; 2.5 pmol NurA/HerA, 1.5 pmol SSB, increasing ATP: no effect of ATP on stimulation; EMSA: 5 pmol fluorescent DNA in 10 ul, 20 mM HEPES/NaOH pH 7.5, 35 mM beta-mercaptoethanol, 500 mM NaCl, 50 mM MgCl2 (so in the source), 10 min room temperature, 5% PAGE in 0.5x TBE; details: protein: recombinant; chain copies: 2; single strand
T2 sequence: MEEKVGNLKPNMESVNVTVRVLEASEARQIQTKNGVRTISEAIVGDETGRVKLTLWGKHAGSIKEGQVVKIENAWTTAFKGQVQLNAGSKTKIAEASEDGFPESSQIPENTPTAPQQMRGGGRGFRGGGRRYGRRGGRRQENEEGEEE

NurA = biological target: T3, NurA (Saccharolobus solfataricus, UniProt Q97WH1 1-339); experiment: EMSA; with SSB: NurA binding not significantly influenced; EMSA: 5 pmol fluorescent DNA in 10 ul, 20 mM HEPES/NaOH pH 7.5, 35 mM beta-mercaptoethanol, 500 mM NaCl, 50 mM MgCl2 (so in the source), 10 min room temperature, 5% PAGE in 0.5x TBE; details: protein: recombinant; chain copies: 2; single strand
T3 sequence: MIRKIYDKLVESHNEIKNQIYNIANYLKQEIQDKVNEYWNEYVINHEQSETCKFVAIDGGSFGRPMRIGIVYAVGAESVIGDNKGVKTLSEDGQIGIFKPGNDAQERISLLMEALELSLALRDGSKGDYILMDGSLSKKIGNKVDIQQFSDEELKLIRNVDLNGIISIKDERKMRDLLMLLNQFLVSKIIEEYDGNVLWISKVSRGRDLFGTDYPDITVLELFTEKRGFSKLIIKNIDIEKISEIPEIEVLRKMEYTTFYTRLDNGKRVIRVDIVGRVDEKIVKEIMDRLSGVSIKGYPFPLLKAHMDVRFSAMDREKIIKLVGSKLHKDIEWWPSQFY

SSB [3] = biological target: T2, SSB; experiment: EMSA; with NurA/HerA: SSB binding strongly stimulated; EMSA: 5 pmol fluorescent DNA in 10 ul, 20 mM HEPES/NaOH pH 7.5, 35 mM beta-mercaptoethanol, 500 mM NaCl, 50 mM MgCl2 (so in the source), 10 min room temperature, 5% PAGE in 0.5x TBE; details: protein: recombinant
HerA [4] = biological target: T1, HerA; experiment: EMSA; in NurA/HerA with SSB: HerA binding not reduced on fork; EMSA: 5 pmol fluorescent DNA in 10 ul, 20 mM HEPES/NaOH pH 7.5, 35 mM beta-mercaptoethanol, 500 mM NaCl, 50 mM MgCl2 (so in the source), 10 min room temperature, 5% PAGE in 0.5x TBE; details: protein: recombinant; chain copies: 6; fork 1:2; 50 bp duplex, unpaired 5' T20 of strand 1 and 3' 20 nt of strand 2

B1: 17 merTAMRA (ssDNA)
DNA: GTTTTCCCAGTCACGAC
binding result (HerA [1]): binds
binding result (SSB [2]): binds
binding result (NurA): binds

B2: 21 merTAMRA (ssDNA)
DNA: GCTATCGTACATGATATCCTC
binding result (SSB [3]; chain copies: 2, single strand): binds

B3: 40 merCy3 (ssDNA)
DNA: GCCGTGATCACCAATGCAGATTGACGAACCTTTGCCCACGT
binding result (SSB [3]; chain copies: 2, single strand): binds

B4: 70 leadCy5 (70 mer) (ssDNA)
DNA: CGTGACTTGATGTTAACCCTAACCCTAAGAATTCGGCTTAAGTGAGTGTGAGGATATCATGTACGATAGC
binding result (SSB [3]; chain copies: 2, single strand): binds

B5: Forked substrate (70 lagFork/70 leadCy5) (dsDNA)
DNA 1: TTTTTTTTTTTTTTTTTTTTCACACTCACTTAAGCCGAATTCTTAGGGTTAGGGTTAACATCAAGTCACG
DNA 2: CGTGACTTGATGTTAACCCTAACCCTAAGAATTCGGCTTAAGTGAGTGTGAGGATATCATGTACGATAGC
binding result (HerA [4]): binds
binding result (SSB [3]; fork 1:2, 50 bp duplex, unpaired 5' T20 of strand 1 and 3' 20 nt of strand 2): binds
